Measured values: the nanobody polyreactivity screen of Harvey et al. (2022)

experiment: yeast display, Sf9 membrane polyspecificity reagent, FACS + sequencing; frameworks hold sequencing errors
How it was run: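 In a synthetic yeast display library (Saccharomyces cerevisiae BJ5465), nanobody expression was induced with galactose for 36–48 hours. FACS gates were set low and high (top ~1%) using anti-HA fluorescence for expression and streptavidin fluorescence for binding of the Sf9 membrane reagent. Each polyreactivity label is drawn from the gate of origin.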

Sequence | polyreactivity (PSR sort gate)
QVQLVESGGGLVQAGGSLRLSCAASGSIFELNAMGWSRQAPGKERELVAAITSSGSSTYYADSVKGRFTISRDNAKNTVYLQMNSLKPEDTAVYYCARDAFEPYDVGEYYYWGQGTQVTVSS | low polyreactivity
QVQLVESGGGLVQAGGSLRLSCAASGSIFELNAMGWYRQAPGKEMELVAAIRWRTGRTYYADSVKGRFTISRDNAKNTVYLLMNSLKPEDTAVYYCNADVTSLTRVHGRFIVSDYDYWGQGTQVTVSS | low polyreactivity
QVQLVESGGGLVQAGGSLRLSCAASGSIFEQNAMGWYRQAPGKERELVAGINEGGGSTYYADSVKGRFTISRDNAKNTVYLQMNSLKPEDTAVYYCAATLGSRWAIYDYWGQGTQVTVSS | high polyreactivity
QVQLVESGGGLVQAGGSLRLSCAASGSIFEQYAMGWYRKAPGKERELVAAISSGGSTNYADSVKGRFTISRDNAKNTVYLQMNSLKPEDTAVYYCAAAYYTVGWLYYDYWYPFAYYYWGQGTQVTVSS | low polyreactivity
QVQLVESGGGLVQAGGSLRLSCAASGSIFEQYPMGWYRQAPGKERELVAAISRRSGRTYYADSVKGRFTISRDNAKHTVYLQMHSLIPEDTAVYYCAASGIYFVQYNSWGQGTHVTVSS | high polyreactivity
QVQLVESGGGLVQAGGSLRLSCAASGSIFERYAMGWYRQAPGKERELVAAISWRGGSTYYADSVKGRFTISRDNAKNTVYLQMNSLKPEDTAVYYCAAGARYVKQGYGYWGQGTQVTVSS | high polyreactivity
QVQLVESGGGLVQAGGSLRLSCAASGSIFESNAMGWYRPAPGKEREFVAAIDQNDGSTNYADSVKGRFTISRDHAKNTVYLQMNSLKPEDTAVYYCAKYWGYLGYYEFDYWGQGTQVTVSS | low polyreactivity
QVQLVESGGGLVQAGGSLRLSCAASGSIFESYAMGWYRQAPGKERELVASISGGGSTYYADSVKGRFTISRDNAKNTVYLQMNSLKPEDTAGYYCATVYVRYRQSRLIRYGYWGQGTQVTVSS | high polyreactivity
QVQLVESGGGLVQAGGSLRLSCAASGSIFESYARGWYRHSPGKERELVADITYHGGITYYADSVKGRFTISRDNAKNNFYLQMNSLKPEDTSVYYCAAESEKWYNYVLSYDWEYDYWGQGTQVTVSS | low polyreactivity
QVQLVESGGGLVQAGGSLRLSCAASGSIFESYVMGWSRPAPGTEREMVAAISSGGSTYYADSVKGRFTISRDNAKNTVYLQMNSLKPEDTAVYYCAANYDGGYLDYEAGYRLEYDYWGQGTQVTVSS | low polyreactivity
QVQLVESGGGLVQAGGSLRLSCAASGSIFESYVMGWYRQAPGKERELVAAISSGGSTYYADSVKGRFTISRDNAKNTVYLQMNSLKPEDTAVYYCNTEVVRFKYDYWGQGTQVTVSS | low polyreactivity
QVQLVESGGGLVQAGGSLRLSCAASGSIFEVNAMGWYRQAPGKERELVAAISCSGGSTYYADSVKGRFTISRDNAKNTVYLQMNSLKPEDTAVYYCAARPAGYSGRKLYYWGQGTQVTVSS | low polyreactivity
QVQLVESGGGLVQAGGSLRLSCAASGSIFEVNAMGWYRQAPGKERELVAAISFSGDSTYYADSVKGRFTISRDNAKNTVYLQMNSLKPEDTAVYYCAAEQYVAWIDYLYDYWGQGTQVTVSS | high polyreactivity
QVQLVESGGGLVQAGGSLRLSCAASGSIFEVYAMGWYRQAPGKERELVAAINYTGGSTYYADSVKGRFTISRDNAKNTVYLQMNSLKPEDTAVYYCARDTSGIGTRYDYWGQGTQVTVSS | low polyreactivity
QVQLVESGGGLVQAGGSLRLSCAASGSIFEWYAMGWYRQAPGKERELVADISSLGSTYYADSVKGRFTISRDNAKNTVYLQMNSLKPEDTAVYYCNTSYIIWYDSWGQGTQVTVSS | low polyreactivity
QVQLVESGGGLVQAGGSLRLSCAASGSIFEYNAMGWYRPAPGKERELVAAISWSSGTTYYADSVKGRFTISLDNAKNSVYLQMNSLKPEDTAVYYCNAGRYGKDSDYWGQGTQVTVSS | low polyreactivity
QVQLVESGGGLVQAGGSLRLSCAASGSIFEYTGMGWYRQAPGKERELVAAITTTGTTDYADSVKGRFTISRDNAKNTVYLQMNSLKPEDTAVYYCAADYTYYYKVEYDYWGQGTQVTVSS | low polyreactivity
QVQLVESGGGLVQAGGSLRLSCAASGSIFFAYDMGWYRQAPGKERELVAAISNIDGSTYYADSVKGRFTISRDNAKNTVYLQMNSVKPEDTAVYYCATRVYYLYDYWGQGTQVTVSS | low polyreactivity
QVQLVESGGGLVQAGGSLRLSCAASGSIFFDNAMGWYRQAPGKERELVAAIDSSGGSTYYADSVKGRFTISRDNAKNTVYLQMNSLKPEDTAVYYCAREQYVPSPYSFFDEFEYWGQGTQVTVSS | low polyreactivity
QVQLVESGGGLVQAGGSLRLSCAASGSIFFDNAMGWYRQAPGKERELVATINSGGNTHYADSVKGRFTISRDNAKNTVYLQMNSLKPEDTAVYSCAADFRSDLVDGYNYWGQGTQVTVSS | low polyreactivity

Sequence | polyreactivity (PSR sort gate)
QVQLVESGGGLVQAGGSLRLSCAASGSIFFDNAMGWYRQAPGKERELVATINSGGNTHYADSVKGRFTISRDNAKNTVYLQMNSLKPEDTAVYYCAADFPSDLVDGYNYWGQGTQVTVSS | low polyreactivity
QVQLVESGGGLVQAGGSLRLSCAASGSIFFDYALGWYRQAPGKERELVARITSSDSTNYADSVKGRFTISRDNAKNTVYLQMNSLKPEDTAVYYCNKDSTGDGYDYWGQGTQVTVSS | low polyreactivity
QVQLVESGGGLVQAGGSLRLSCAASGSIFFFNAMGWYRQAPGKERELVAAISESGTSTYYADSVKGRFTISRDNAKNTVYLQMNSLKPEDAAVYYCNVVFRYAYGVYYTPEFYYWGQGTQVTVSS | low polyreactivity
QVQLVESGGGLVQAGGSLRLSCAASGSIFFGNAMGLYRQAPGKERELVAAISTTGGSTYYADSVKGRFTISRDNAKNTVYLQMNSLKPEDTAVYYCNADRATWWEQWWYDYWGQGTQVTVSS | low polyreactivity
QVQLVESGGGLVQAGGSLRLSCAASGSIFFGYAMGWYRQAPGKEREFVAAITASGVRTYYADSVKGRFTISRDNAKNTVYLQMNSLKPEDTAVYYCAARIGTGVLPARGAKSHMDYWGQGTQVPVSS | low polyreactivity
QVQLVESGGGLVQAGGSLRLSCAASGSIFFLNAMGWYRQAPGKERELVAAITNVGSTYYADSVKGRFTISRDNAKNTVYLQMNSLKPEDTAVYYCNADPGEVLVGYDYWGQGTEVTVSS | low polyreactivity
QVQLVESGGGLVQAGGSLRLSCAASGSIFFLYAMGWYRQAPGKERELVAAISRDGRTNYADSVKGRFTISRDNAKNTVYLQMNSLKPEDTAVYYCAKDGNHPGAVGYGYWGQGTQVTVSS | low polyreactivity
QVQLVESGGGLVQAGGSLRLSCAASGSIFFLYAMGWYRQAPGKERELVAGINLSGGSTYYADSVKGRFTISRDNAKNTVYLQMNSLKPEDTAVYYCNAYLPSPYSSSYIFDYDSWGQGTQVTVSS | low polyreactivity
QVQLVESGGGLVQAGGSLRLSCAASGSIFFLYTMGWYRQARGKERELVAAITRNGGSTYYADSVKGRFTISRDNAKNTVYLQMNSLKPEDTAVYYCNALRWYSYNYWGQGTQVTVSS | high polyreactivity
QVQLVESGGGLVQAGGSLRLSCAASGSIFFNYAMGWYRQAPGKERELVAAISSNGGRTYYADSVKGRFTISRDNAKNTVYLQMNSLKPEDTAVYYCAARVYDYPRFGYWGQGTQVTVSS | high polyreactivity
QVQLVESGGGLVQAGGSLRLSCAASGSIFFPYAMGWYRQAPGKERELVAAITRSGGRTYYADSVKGRFTISRDNAKNTVYLQMNSLKPEDTAVYYCAAGPWYNFYDSRPWFSYDYWGQGTQVTVSS | low polyreactivity
QVQLVESGGGLVQAGGSLRLSCAASGSIFFPYAMGWYRQAPGKERELVAASTRSGGRTYYADSVKGRFTISRDNAKNTVYLQMNSLKPEDTAVYYCAAGPWYKFYDWRPWFSYDYWGQGTQVTVSS | low polyreactivity
QVQLVESGGGLVQAGGSLRLSCAASGSIFFRYAMGWYRPAPGKERELVAAISSSGGSTYYADSVKGRFTISRDNAKNTVYLQMNSLKPEDTAVYYCAARYYSKYYYSPFDYWGQGTQVTVSS | high polyreactivity
QVQLVESGGGLVQAGGSLRLSCAASGSIFFRYTMGWYRQAPGKERELVAAITGDGGSTYADSVKGRFTISRDNAKNTVYLQMNSLNPEDTAVYYCAALSTTGIWGTVSTYYYWGQGTQVTVSS | low polyreactivity
QVQLVESGGGLVQAGGSLRLSCAASGSIFFSNAMGRYRQAPGKERELVAGIRSGGITNYADSVKGRFTISRDNAKNTVYLQMNSLKPEDTAVYYCNADLAPSTPYFYYFPVRRDYWGQGTQVTVSS | low polyreactivity
QVQLVESGGGLVQAGGSLRLSCAASGSIFFSNTMGWYRQAPGKERELVARITWSGTSTNYADSVKGRFTISRDNAKNTVYLQMNSLKPEDTAVYYCNAGFYTSAGYDYWGQGTQVTVSS | high polyreactivity
QVQLVESGGGLVQAGGSLRLSCAASGSIFFSNVMGWSRPAPGKERELVAAITRGGGTNYADSVKGRFTISRDNAKNTVYLQMNSLKPEDTAVYYCNRDPQKYRWIPRYDYWGQGTQVTVSS | low polyreactivity
QVQLVESGGGLVQAGGSLRLSCAASGSIFFSYAMGWYRQAPGKERELVATITTSGGRTRYADSVKGRFTISRDNAKNTVYLQMNSLKPEETAVYYCAAAPWDAPWSGYEYWGQGTQVTVSS | high polyreactivity
QVQLVESGGGLVQAGGSLRLSCAASGSIFFVYAMGWYRQAPGKERELVAGISGRDGSTYYADSVKGRFTISRDNAKNTVYLQMNSLKPEDTAVYYSARVYWGQGTQVTVSS | low polyreactivity
QVQLVESGGGLVQAGGSLRLSCAASGSIFFWYTMGWYRQAPGKERELVATITGSGSSTTYADSVKGRFTISRDYAKNTVYLQMNSLKPEDTAVYYCAAADIIDHSFPYDYWGQGTQVTVSS | low polyreactivity
